Data from IntAct's records for PubMed 9701578.

B1: Receptor protein kinase CLAVATA1 (Arabidopsis thaliana (Mouse-ear cress)), Q9SYQ8 (parent)
chain: MAMRLLKTHLLFLHLYLFFSPCFAYTDMEVLLNLKSSMIGPKGHGLHDWIHSSSPDAHCSFSGVSCDDDARVISLNVSFTPLFGTISPEIGMLTHLVNLTLAANNFTGELPLEMKSLTSLKVLNISNNGNLTGTFPGEILKAMVDLEVLDTYNNNFNGKLPPEMSELKKLKYLSFGGNFFSGEIPESYGDIQSLEYLGLNGAGLSGKSPAFLSRLKNLREMYIGYYNSYTGGVPPEFGGLTKLEILDMASCTLTGEIPTSLSNLKHLHTLFLHINNLTGHIPPELSGLVSLKSLDLSINQLTGEIPQSFINLGNITLINLFRNNLYGQIPEAIGELPKLEVFEVWENNFTLQLPANLGRNGNLIKLDVSDNHLTGLIPKDLCRGEKLEMLILSNNFFFGPIPEELGKCKSLTKIRIVKNLLNGTVPAGLFNLPLVTIIELTDNFFSGELPVTMSGDVLDQIYLSNNWFSGEIPPAIGNFPNLQTLFLDRNRFRGNIPREIFELKHLSRINTSANNITGGIPDSISRCSTLISVDLSRNRINGEIPKGINNVKNLGTLNISGNQLTGSIPTGIGNMTSLTTLDLSFNDLSGRVPLGGQFLVFNETSFAGNTYLCLPHRVSCPTRPGQTSDHNHTALFSPSRIVITVIAAITGLILISVAIRQMNKKKNQKSLAWKLTAFQKLDFKSEDVLECLKEENIIGKGGAGIVYRGSMPNNVDVAIKRLVGRGTGRSDHGFTAEIQTLGRIRHRHIVRLLGYVANKDTNLLLYEYMPNGSLGELLHGSKGGHLQWETRHRVAVEAAKGLCYLHHDCSPLILHRDVKSNNILLDSDFEAHVADFGLAKFLVDGAASECMSSIAGSYGYIAPEYAYTLKVDEKSDVYSFGVVLLELIAGKKPVGEFGEGVDIVRWVRNTEEEITQPSDAAIVVAIVDPRLTGYPLTSVIHVFKIAMMCVEEEAAARPTMREVVHMLTNPPKSVANLIAF
partner: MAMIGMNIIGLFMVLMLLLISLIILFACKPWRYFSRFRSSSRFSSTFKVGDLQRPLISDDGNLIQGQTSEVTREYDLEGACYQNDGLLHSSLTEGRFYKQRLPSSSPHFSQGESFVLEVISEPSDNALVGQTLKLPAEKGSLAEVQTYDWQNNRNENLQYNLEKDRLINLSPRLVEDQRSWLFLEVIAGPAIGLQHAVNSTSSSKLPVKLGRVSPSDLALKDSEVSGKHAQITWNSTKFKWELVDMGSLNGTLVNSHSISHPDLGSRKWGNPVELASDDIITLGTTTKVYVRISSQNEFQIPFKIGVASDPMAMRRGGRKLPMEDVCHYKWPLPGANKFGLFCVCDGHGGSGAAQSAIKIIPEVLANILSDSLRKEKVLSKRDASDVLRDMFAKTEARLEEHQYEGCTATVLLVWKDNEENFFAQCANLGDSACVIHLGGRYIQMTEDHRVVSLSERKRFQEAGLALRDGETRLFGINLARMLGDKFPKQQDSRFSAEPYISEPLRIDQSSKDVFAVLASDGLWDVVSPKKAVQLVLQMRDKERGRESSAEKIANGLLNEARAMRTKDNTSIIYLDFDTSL

Variants of: B1
Conditions: with KAPP

Variant	effect of a mutation on the interaction
K720E	disrupting interaction
